T1: Nbp2, Q12163
T1 sequence (Q12163 103-180, looked up): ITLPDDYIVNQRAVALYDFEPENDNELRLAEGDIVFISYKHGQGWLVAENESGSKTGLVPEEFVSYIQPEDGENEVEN

T2: Bzz1-2, P38822
T2 sequence (P38822 568-633, looked up): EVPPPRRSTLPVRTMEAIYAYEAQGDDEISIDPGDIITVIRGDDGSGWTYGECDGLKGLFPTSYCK

T3: Myo5, Q04439
T3 sequence (Q04439 1072-1160, looked up): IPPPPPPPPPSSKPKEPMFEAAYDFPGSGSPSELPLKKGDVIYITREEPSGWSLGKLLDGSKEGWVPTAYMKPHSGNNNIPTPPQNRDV

T4: Bzz1-1, P38822
T4 sequence (P38822 478-572, looked up): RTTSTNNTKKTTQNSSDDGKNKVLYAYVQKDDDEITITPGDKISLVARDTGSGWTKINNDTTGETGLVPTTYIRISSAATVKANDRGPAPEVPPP

T5: Lsb3, P43603
T5 sequence (P43603 385-451, looked up): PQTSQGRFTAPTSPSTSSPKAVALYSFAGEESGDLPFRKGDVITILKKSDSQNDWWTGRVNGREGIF

T6: Sla1-3, P32790
T6 sequence (P32790 344-424, looked up): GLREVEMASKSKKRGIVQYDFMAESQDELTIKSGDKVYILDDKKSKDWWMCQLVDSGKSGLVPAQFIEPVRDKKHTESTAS

T7: Fus1, P11710
T7 sequence (P11710 432-512, looked up): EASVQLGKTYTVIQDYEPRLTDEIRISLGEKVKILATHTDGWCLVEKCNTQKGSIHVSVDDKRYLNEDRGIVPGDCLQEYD

T8: Hof1, Q05080
T8 sequence (Q05080 590-669, looked up): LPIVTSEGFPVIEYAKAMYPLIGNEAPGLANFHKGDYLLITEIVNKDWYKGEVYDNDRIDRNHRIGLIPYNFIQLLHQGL

T9: Sla1-2, P32790
T9 sequence (P32790 60-140, looked up): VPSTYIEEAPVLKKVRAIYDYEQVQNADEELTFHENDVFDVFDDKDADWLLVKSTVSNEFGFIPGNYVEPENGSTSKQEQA

T10: Hse1, P38753
T10 sequence (P38753 208-285, looked up): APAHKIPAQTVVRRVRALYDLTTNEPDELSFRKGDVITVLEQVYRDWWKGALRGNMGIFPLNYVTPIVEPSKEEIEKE

T11: Bbc1, P47068
T11 sequence (P47068 1-78, looked up): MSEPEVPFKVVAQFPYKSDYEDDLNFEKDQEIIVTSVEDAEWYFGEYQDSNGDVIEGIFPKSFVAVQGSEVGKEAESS

T12: Cdc25, P04821
T12 sequence (P04821 50-136, looked up): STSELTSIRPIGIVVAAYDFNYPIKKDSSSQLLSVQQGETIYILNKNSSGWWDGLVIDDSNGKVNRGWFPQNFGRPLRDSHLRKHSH

T13: Bud14, P27637
T13 sequence (P27637 247-328, looked up): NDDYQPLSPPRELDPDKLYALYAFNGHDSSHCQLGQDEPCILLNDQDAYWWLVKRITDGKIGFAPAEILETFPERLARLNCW

T14: Pex13, P80667
T14 sequence (P80667 295-386, looked up): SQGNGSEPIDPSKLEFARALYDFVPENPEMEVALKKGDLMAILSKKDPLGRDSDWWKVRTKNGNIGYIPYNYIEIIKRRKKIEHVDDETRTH

T15: Pin3, Q06449
T15 sequence (Q06449 53-122, looked up): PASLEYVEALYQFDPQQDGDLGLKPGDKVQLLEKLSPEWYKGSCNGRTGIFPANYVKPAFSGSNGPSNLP

T16: Boi2, P39969
T16 sequence (P39969 32-116, looked up): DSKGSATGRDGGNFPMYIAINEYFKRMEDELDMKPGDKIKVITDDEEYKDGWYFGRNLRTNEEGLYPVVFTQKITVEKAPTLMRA

T17: Abp1, P15891
T17 sequence (P15891 535-592, looked up): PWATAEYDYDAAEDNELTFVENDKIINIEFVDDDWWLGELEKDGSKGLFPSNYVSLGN

T18: Cyk3, Q07533
T18 sequence (Q07533 1-83, looked up): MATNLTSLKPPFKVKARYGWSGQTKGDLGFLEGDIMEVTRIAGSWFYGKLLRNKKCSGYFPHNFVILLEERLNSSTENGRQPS

T19: Lsb1, P53281
T19 sequence (P53281 45-122, looked up): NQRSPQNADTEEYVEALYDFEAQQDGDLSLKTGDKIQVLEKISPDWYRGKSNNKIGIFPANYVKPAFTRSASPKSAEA

T20: Lsb4, P32793
T20 sequence (P32793 402-468, looked up): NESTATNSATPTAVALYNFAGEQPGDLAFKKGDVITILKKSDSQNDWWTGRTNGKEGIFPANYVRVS

T21: Boi1, P38041
T21 sequence (P38041 1-86, looked up): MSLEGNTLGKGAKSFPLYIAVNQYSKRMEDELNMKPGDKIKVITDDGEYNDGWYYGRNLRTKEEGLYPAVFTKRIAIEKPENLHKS


Tests used:
Test in all cases: SPOT array
Nbp2, Q12163 = molecular target: T1, Nbp2, Q12163; settings: median of control spots 357
Bzz1-2, P38822 = molecular target: T2, Bzz1-2, P38822; settings: median of control spots 4538
Myo3, P36006 = settings: median of control spots 468
Myo5, Q04439 = molecular target: T3, Myo5, Q04439; settings: median of control spots 471
Bem1-2, P29366 = settings: median of control spots 4347
Sho1, P40073 = settings: median of control spots 1148
Bzz1-1, P38822 = molecular target: T4, Bzz1-1, P38822; settings: median of control spots 4446
Lsb3, P43603 = molecular target: T5, Lsb3, P43603; settings: median of control spots 406
Sla1-3, P32790 = molecular target: T6, Sla1-3, P32790; settings: median of control spots 5475
Fus1, P11710 = molecular target: T7, Fus1, P11710; settings: median of control spots 1200
Hof1, Q05080 = molecular target: T8, Hof1, Q05080; settings: median of control spots 4086
Sla1-2, P32790 = molecular target: T9, Sla1-2, P32790; settings: median of control spots 712
Hse1, P38753 = molecular target: T10, Hse1, P38753; settings: median of control spots 1727
Rvs167, P39743 = settings: median of control spots 2707
GST = settings: median of control spots 978
Bbc1, P47068 = molecular target: T11, Bbc1, P47068; settings: median of control spots 796
Cdc25, P04821 = molecular target: T12, Cdc25, P04821; settings: median of control spots 969
Bud14, P27637 = molecular target: T13, Bud14, P27637; settings: median of control spots 956
Pex13, P80667 = molecular target: T14, Pex13, P80667; settings: median of control spots 1341
Bem1-1, P29366 = settings: median of control spots 4282
Pin3, Q06449 = molecular target: T15, Pin3, Q06449; settings: median of control spots 2171
Boi2, P39969 = molecular target: T16, Boi2, P39969; settings: median of control spots 1161
Abp1, P15891 = molecular target: T17, Abp1, P15891; settings: median of control spots 935
Cyk3, Q07533 = molecular target: T18, Cyk3, Q07533; settings: median of control spots 1451
Lsb1, P53281 = molecular target: T19, Lsb1, P53281; settings: median of control spots 388
Lsb4, P32793 = molecular target: T20, Lsb4, P32793; settings: median of control spots 397
Boi1, P38041 = molecular target: T21, Boi1, P38041; settings: median of control spots 1162

Rvs167, P39743, sequence (P39743 419-482): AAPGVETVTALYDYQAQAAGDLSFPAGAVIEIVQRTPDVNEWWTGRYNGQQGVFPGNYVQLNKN
Bem1-2, P29366, sequence (P29366 139-227): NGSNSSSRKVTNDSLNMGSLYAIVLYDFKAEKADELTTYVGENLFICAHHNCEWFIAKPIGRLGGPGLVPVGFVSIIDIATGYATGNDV
Bem1-1, P29366, sequence (P29366 55-141): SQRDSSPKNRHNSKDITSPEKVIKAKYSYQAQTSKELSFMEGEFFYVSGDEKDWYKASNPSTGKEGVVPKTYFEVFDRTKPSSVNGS
Sho1, P40073, sequence (P40073 287-367): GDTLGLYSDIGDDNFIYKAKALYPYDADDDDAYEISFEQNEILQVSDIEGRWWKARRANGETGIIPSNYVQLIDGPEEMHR

Row | SPOT intensity (Nbp2, Q12163) | SPOT intensity (Bzz1-2, P38822) | SPOT intensity (Myo3, P36006) | SPOT intensity (Myo5, Q04439) | SPOT intensity (Bem1-2, P29366) | SPOT intensity (Sho1, P40073) | SPOT intensity (Bzz1-1, P38822) | SPOT intensity (Lsb3, P43603) | SPOT intensity (Sla1-3, P32790) | SPOT intensity (Fus1, P11710) | SPOT intensity (Hof1, Q05080) | SPOT intensity (Sla1-2, P32790) | SPOT intensity (Hse1, P38753) | SPOT intensity (Rvs167, P39743) | SPOT intensity (GST) | SPOT intensity (Bbc1, P47068) | SPOT intensity (Cdc25, P04821) | SPOT intensity (Bud14, P27637) | SPOT intensity (Pex13, P80667) | SPOT intensity (Bem1-1, P29366) | Binder | other results
1 | 0 | 0 | 334 | 242 | 1 | 0 | 0 | 0 | 0 | 0 | 0 | 0 | 0 | 0 | 0 | 0 | 0 | 0 | 0 | 0 | QPPLPSSAPPIPTSH | SPOT intensity (Pin3, Q06449): 0; SPOT intensity (Boi2, P39969): 0; SPOT intensity (Abp1, P15891): 0; SPOT intensity (Cyk3, Q07533): 0; SPOT intensity (Lsb1, P53281): 0; SPOT intensity (Lsb4, P32793): 0; SPOT intensity (Boi1, P38041): 0
2 | 0 | 0 | 425 | 318 | 0 | 0 | 0 | 0 | 0 | 0 | 0 | 0 | 0 | 0 | 0 | 0 | 0 | 0 | 0 | 0 | PPIPIVPSSPAPPLP | SPOT intensity (Pin3, Q06449): 0; SPOT intensity (Boi2, P39969): 0; SPOT intensity (Abp1, P15891): 0; SPOT intensity (Cyk3, Q07533): 0; SPOT intensity (Lsb1, P53281): 0; SPOT intensity (Lsb4, P32793): 0; SPOT intensity (Boi1, P38041): 0
3 | 0 | 0 | 399 | 434 | 0 | 0 | 1 | 0 | 0 | 1 | 0 | 0 | 0 | 0 | 0 | 0 | 0 | 0 | 0 | 0 | PIVPSSPAPPLPLSG | SPOT intensity (Pin3, Q06449): 0; SPOT intensity (Boi2, P39969): 0; SPOT intensity (Abp1, P15891): 0; SPOT intensity (Cyk3, Q07533): 0; SPOT intensity (Lsb1, P53281): 0; SPOT intensity (Lsb4, P32793): 0; SPOT intensity (Boi1, P38041): 0

More lines, now with the values behind:

Row | Binder | SPOT intensity (Nbp2, Q12163) | SPOT intensity (Bzz1-2, P38822) | SPOT intensity (Myo3, P36006) | SPOT intensity (Myo5, Q04439) | SPOT intensity (Bem1-2, P29366) | SPOT intensity (Sho1, P40073) | SPOT intensity (Bzz1-1, P38822) | SPOT intensity (Lsb3, P43603) | SPOT intensity (Sla1-3, P32790) | SPOT intensity (Fus1, P11710) | SPOT intensity (Hof1, Q05080) | SPOT intensity (Sla1-2, P32790) | SPOT intensity (Hse1, P38753) | SPOT intensity (Rvs167, P39743) | SPOT intensity (GST) | SPOT intensity (Bbc1, P47068) | SPOT intensity (Cdc25, P04821) | SPOT intensity (Bud14, P27637) | SPOT intensity (Pex13, P80667) | SPOT intensity (Bem1-1, P29366) | other results
4 | ISPPASPPPEFDFSK | 0 | 0 | 233 | 91 | 0 | 0 | 0 | 0 | 0 | 0 | 0 | 0 | 0 | 0 | 0 | 0 | 0 | 0 | 0 | 0 | SPOT intensity (Pin3, Q06449): 0; SPOT intensity (Boi2, P39969): 0; SPOT intensity (Abp1, P15891): 0; SPOT intensity (Cyk3, Q07533): 1; SPOT intensity (Lsb1, P53281): 0; SPOT intensity (Lsb4, P32793): 0; SPOT intensity (Boi1, P38041): 0
5 | MPAPPPPPPPPPGAF | 0 | 1 | 163 | 49 | 0 | 0 | 0 | 0 | 2 | 0 | 0 | 0 | 0 | 0 | 0 | 0 | 0 | 0 | 0 | 0 | SPOT intensity (Pin3, Q06449): 1; SPOT intensity (Boi2, P39969): 0; SPOT intensity (Abp1, P15891): 0; SPOT intensity (Cyk3, Q07533): 0; SPOT intensity (Lsb1, P53281): 0; SPOT intensity (Lsb4, P32793): 0; SPOT intensity (Boi1, P38041): 0
6 | HAPPLPPTAPPPPSL | 0 | 0 | 465 | 279 | 0 | 0 | 0 | 0 | 0 | 0 | 11 | 0 | 0 | 0 | 0 | 0 | 0 | 0 | 0 | 0 | SPOT intensity (Pin3, Q06449): 0; SPOT intensity (Boi2, P39969): 0; SPOT intensity (Abp1, P15891): 0; SPOT intensity (Cyk3, Q07533): 0; SPOT intensity (Lsb1, P53281): 0; SPOT intensity (Lsb4, P32793): 0; SPOT intensity (Boi1, P38041): 0

Source: article PMC2756588
